Experimental data taken from article PMC4176334.

Assays:
[1] = molecular target: T1, M. tuberculosis RNAP core;SigJ;RbpA (Mycobacterium tuberculosis;Mycobacterium tuberculosis H37Rv?;Mycobacterium tuberculosis) (UniProt P9WGZ1+P9WGY9+P9WGY7+P9WGY5+L0TCG5+P9WHJ5); assay: DNase I footprinting
[2] = molecular target: T2, M. tuberculosis RNAP core;SigJ (Mycobacterium tuberculosis;Mycobacterium tuberculosis H37Rv?) (UniProt P9WGZ1+P9WGY9+P9WGY7+P9WGY5+L0TCG5); assay: DNase I footprinting
[3] = molecular target: T1, M. tuberculosis RNAP core;SigJ;RbpA (Mycobacterium tuberculosis;Mycobacterium tuberculosis H37Rv?;Mycobacterium tuberculosis); assay: KMnO4 footprinting
[4] = molecular target: T2, M. tuberculosis RNAP core;SigJ (Mycobacterium tuberculosis;Mycobacterium tuberculosis H37Rv?); assay: KMnO4 footprinting
[5] = molecular target: M. tuberculosis RNAP core;SigA;RbpA (Mycobacterium tuberculosis;Mycobacterium tuberculosis;Mycobacterium tuberculosis) (UniProt P9WGZ1+P9WGY9+P9WGY7+P9WGY5+P9WGI1+P9WHJ5); assay: EMSA
[6] = molecular target: M. tuberculosis RNAP core;SigA (Mycobacterium tuberculosis;Mycobacterium tuberculosis) (UniProt P9WGZ1+P9WGY9+P9WGY7+P9WGY5+P9WGI1); assay: EMSA

Measured: binding

GCCCTCCCGCCGACCCATGCTGGAATTCATAACATCAAGGACGAGACAGCCCCGCCGAATGTGACAGCAACCGGCGATTTCAGCGCTCGGCGC (double strand) [sigIP promoter]
binds: [1] | [2] | [3] | [4]

TTGAGTTCTCAAACAACACGCTTGCTTGTTTCCGCCCGCTTCGGGGCAACCCTGCCAGTCTAATACAAATCCGGCAATGGAGTCAAGACCAGGTTCGGTCATCCATAGATATCCATAGGTGACCGTCGCCTAACAGCATACCCGTTCGAT (double strand) [rrnAP3 promoter]
binds: [5] | [6]
